The values that follow are results of earlier work, collected in PMC8494837.

The data set concerns the target Ubiquitin (Homo sapiens) (UniProt P0CG47).

Chain of CXCR4 (P61073 whole entry): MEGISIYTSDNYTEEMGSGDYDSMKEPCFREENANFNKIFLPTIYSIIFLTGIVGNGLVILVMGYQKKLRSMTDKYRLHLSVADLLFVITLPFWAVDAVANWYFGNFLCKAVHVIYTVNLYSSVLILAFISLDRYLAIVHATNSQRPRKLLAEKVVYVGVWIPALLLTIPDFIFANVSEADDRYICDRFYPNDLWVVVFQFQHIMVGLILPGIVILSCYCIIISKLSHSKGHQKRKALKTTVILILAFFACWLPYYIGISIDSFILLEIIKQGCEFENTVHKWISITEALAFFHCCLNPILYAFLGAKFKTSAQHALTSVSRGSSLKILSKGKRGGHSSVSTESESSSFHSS

One may read the Kd as the concentration at which binding is half-saturated. In the case of CXCR4 (from UniProt P61073), the Kd was 84 nM.
